# Experimental data published in the supplement of paper PMC7125110.
# ± gives the standard error. Fewer inactive variants are shown than the library holds.
# B1: glmS ribozyme (parent)
# chain: AUAAAAGCGCCAGAACUACAGAAAUGUAGUUGACGAGGAGGAGGUUUAUCGAAUUUUCGGCGGAUGCCUCCAAA
# Legend:
# Settings in all cases: with glucosamine-6-phosphate
# glucosamine-6-phosphate [1] = variants of: B1; assay: self-cleavage kobs at 160 uM GlcN6P; higher = faster cleavage; RNA array
# Method in brief: (§1)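 Barcoded glmS ribozyme variants on sequenced MiSeq chips were transcribed in situ by E. coli RNA polymerase and tracked through a hybridised Cy3 probe at 37 °C. Glucosamine-6-phosphate (40 μM to 10 mM) in HEPES/KCl/Mg(OAc)2 buffer was flowed in, and tiles were imaged over ~14 h. Signals were normalised to baseline and to non-cleaving reference variants; per-tile medians were fit to one- or two-exponential decays to give kobs. kcat and KM came from weighted Michaelis–Menten fits across concentrations.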
# glucosamine-6-phosphate [2] = variants of: B1; assay: self-cleavage kobs at 2500 uM GlcN6P; higher = faster cleavage; RNA array
# Method in brief: as §1
# glucosamine-6-phosphate [3] = variants of: B1; assay: self-cleavage kobs at 640 uM GlcN6P; higher = faster cleavage; RNA array
# Method in brief: as §1
# glucosamine-6-phosphate [4] = variants of: B1; assay: self-cleavage kobs at 10000 uM GlcN6P; higher = faster cleavage; RNA array
# Method in brief: as §1
Variant,self-cleavage kobs at 160 uM GlcN6P (glucosamine-6-phosphate [1]),self-cleavage kobs at 2500 uM GlcN6P (glucosamine-6-phosphate [2]),self-cleavage kobs at 640 uM GlcN6P (glucosamine-6-phosphate [3]),self-cleavage kobs at 10000 uM GlcN6P (glucosamine-6-phosphate [4])
AUAAAAGCUCCAGAACUACAGAAAUGUAGUUGACGAGGGGGAGGUUUAUCGAAUUUUCGGCGGAUGCCUCCAAA [G9U A39G],< 1e-05 s⁻¹,< 1e-05 s⁻¹,–,–
AUAAAAGCGUCAGAACUACAGAAAUGUAGUUGACGAGGAGGCGGUUUAUCGAAUUUUCGGCGAAUGCCUCCAAA [C10U A42C G63A],< 1e-05 s⁻¹,< 1e-05 s⁻¹,< 1e-05 s⁻¹,–
AUAAAAGCGGCAGAACUACAGAAAUGUAGUUGACGACGAGGAGGUUUUUCGAAUUUUCGGAGGAUGCCCCCAAA [C10G G37C A48U C61A U69C],< 1e-05 s⁻¹,< 1e-05 s⁻¹,–,–
AUAAAAGCUCCAGAACUACAGAAAUGUAGUUGACGACGAGGAGGUUUAUCGAAUUUUCGGCGGAUGCCUCCAAA [G9U G37C],< 1e-05 s⁻¹,< 1e-05 s⁻¹,< 1e-05 s⁻¹,< 1e-05 s⁻¹
AUAAAAGCGGCAGAACUACAGAAAUGUAGUUGACGAGGAGGAGGUUUGUCGAAUUUUCGGCGGUAGCCUCCAAA [C10G A48G A64U U65A],< 1e-05 s⁻¹,< 1e-05 s⁻¹,< 1e-05 s⁻¹,–
AUAAAAGCGCAAGAACUACAGAAAUGUAGUUGACGAGGAGUACGUUUAUCGAAUUUUCGGCGGAUGCCUCCAAA [C11A G41U G43C],< 1e-05 s⁻¹,–,< 1e-05 s⁻¹,–
AUAAAAGCUCCAGAACUACAGAAAUGUAAUUGACUAGGAGGAGGUGUAUCGAAUUUUCGGCGGAUGCCUCCAAA [G9U G29A G35U U46G],< 1e-05 s⁻¹,< 1e-05 s⁻¹,< 1e-05 s⁻¹,–
AUAAAAGCGACAGAACUACAGAAAUGUAGUUGACGAGGAAGAGGUUUAUCGAAUUUUCGGCGGAUGCCUCAAAA [C10A G40A C71A],< 1e-05 s⁻¹,–,< 1e-05 s⁻¹,–
AUAAAAGCGAGCUAACUACAGAAAUGUAGUUGACGAGGAGGAGGUUUAUCGAAUUUUCGGCGGAUGCCUCCAAA [C10A C11G A12C G13U],< 1e-05 s⁻¹,< 1e-05 s⁻¹,–,–
AUAAAAGCGUCAGAUCUACAGAAAUGUAGUUGACGAGGAGGAGGUUUAUCGAAUUUUCGGCGGAUGCCUCCAAA [C10U A15U],< 1e-05 s⁻¹,–,–,< 1e-05 s⁻¹
AUAAAAGCGACAGAACUACAGAAAUGUAGUUGACGAGGAGGAGGUUUAUCGUAUUUUCGGCGGAUGCAUCCAAA [C10A A52U C68A],7.21e-05 ± 2.5e-05 s⁻¹,–,–,–
AUAAAAGCGCAAGAACUACAGAAAUGUAGUUGACGAGCAGGAGGUUUAUCGAAUUUUCGGCGGAUGCCUCCAAA [C11A G38C],< 1e-05 s⁻¹,< 1e-05 s⁻¹,–,–
AUAAAAGCUCCAGAACUACAGAAAUGUAGUUGACGAGGAGGAGGCUUAUCGAAUUUUCGGCGGAUGCCUCCAAA [G9U U45C],< 1e-05 s⁻¹,< 1e-05 s⁻¹,< 1e-05 s⁻¹,< 1e-05 s⁻¹
AUAAAAGCGGCAGAACUACAGAAAUGUAGUUGACGAGGACGAGGUUUAUCGAAUUUUCGGCGGAUGCCUCCAAA [C10G G40C],< 1e-05 s⁻¹,–,< 1e-05 s⁻¹,< 1e-05 s⁻¹
AUAAAAGCGACAGAACUACAGAAAUGUAGUUGCCGAGGAGGAGAUUUAUCGGAUUUUCGGCGGAAGCCUCCAAA [C10A A33C G44A A52G U65A],< 1e-05 s⁻¹,–,–,–
AUAAAAGCUCCAGAAUUACAGAAAUGUAGUUGACGAGGAGGAGGUUUAUCGAAUUUUCGGCGGAUGCCUCCAAA [G9U C16U],< 1e-05 s⁻¹,< 1e-05 s⁻¹,< 1e-05 s⁻¹,< 1e-05 s⁻¹

Variant,self-cleavage kobs at 160 uM GlcN6P (glucosamine-6-phosphate [1]),self-cleavage kobs at 2500 uM GlcN6P (glucosamine-6-phosphate [2]),self-cleavage kobs at 640 uM GlcN6P (glucosamine-6-phosphate [3]),self-cleavage kobs at 10000 uM GlcN6P (glucosamine-6-phosphate [4])
AUAAAAGCGUGAGGACUACAGAAAUGUAGUUGACGAGGAGGACGUUUAUCGACUUUUCGGCGGAUGCCUCCAAA [C10U C11G A14G G43C A53C],< 1e-05 s⁻¹,< 1e-05 s⁻¹,< 1e-05 s⁻¹,–
AUAAAAGCGGCGGAACUACAGAAAUGUAGUUGACGAGCAGGAGGUUUAUCGAAUUUUCGGCGGAUGCCUCCAAA [C10G A12G G38C],< 1e-05 s⁻¹,–,< 1e-05 s⁻¹,–
AUAAAAGCGACAGAACUACAGAAAUGUAGUUGGCGUCGAGGAGGUUUAUCGAAUUUUCGGGGGAUGCCUCCAAA [C10A A33G A36U G37C C61G],< 1e-05 s⁻¹,–,< 1e-05 s⁻¹,–
AUAAAAGCGGCAGAACUACAGAAAUGUAGUUGACGAGUAGGCGGUUUAUCGAAUUUUCGGCGGAUGCCUCCAAA [C10G G38U A42C],< 1e-05 s⁻¹,< 1e-05 s⁻¹,–,–
AUAAAAGCGGCAGAACUACAGAAAUGUAGUUUAUGAGGAUCAGGUUUAUCGAAUUUUCGGCGGAUGCCUCCAAA [C10G G32U C34U G40U G41C],< 1e-05 s⁻¹,< 1e-05 s⁻¹,< 1e-05 s⁻¹,–
AUAAAAGCGUCAGAACUACAGAAAUGUAGUUGACGAGGAGGAGGUUUAUCCAAUUUUCGGCGGAUGCCUCCAAA [C10U G51C],< 1e-05 s⁻¹,–,–,–
AUAAAAGCGCAAGAACUACAGAAAUGUAGCUGACGAGGAGGAGGUUUAUCGAAUUUUCGGCAGAUGCCUCCAAA [C11A U30C G62A],< 1e-05 s⁻¹,< 1e-05 s⁻¹,< 1e-05 s⁻¹,–
AUAAAAGCGUCAGAACUACAGAAAUGUAGUUGACGAGGAGGGGGUUUAUCGAUUUUUCGGCGGAUGCCUCCAAA [C10U A42G A53U],< 1e-05 s⁻¹,–,–,–
AUAAAAGCUCCAGAACUACAGAAAUGUAGUUGACGAGGAGGAGGUUUUUCGAAUUUUCGGCGGAUGGCUCCAAA [G9U A48U C67G],< 1e-05 s⁻¹,< 1e-05 s⁻¹,< 1e-05 s⁻¹,–
AUAAAAGCUCCAGAACUACAGAAAUGUAGUUGACGAGGAGGAGGUUUUUCGAAUUUACGGCGGAUGCCUCCAAA [G9U A48U U57A],< 1e-05 s⁻¹,< 1e-05 s⁻¹,–,< 1e-05 s⁻¹
AUAAAAGCGCAAGAACUACAGAAAUGUAGUUGACGAGGAGGAGGUUUAUCGAAUUUUUGGCGGAUGCAUCCAAA [C11A C58U C68A],7.67e-05 ± 3.2e-05 s⁻¹,7.25e-05 ± 2.7e-05 s⁻¹,–,5.61e-05 ± 1.5e-05 s⁻¹
AUAAAAGCGUCAGAACUACAGAAAUGUAGUUGUCGAGGAGGAGGUUUAUCGAAUUUUCGGCUGAUGCCUCAAAA [C10U A33U G62U C71A],< 1e-05 s⁻¹,< 1e-05 s⁻¹,< 1e-05 s⁻¹,< 1e-05 s⁻¹
AUAAAAGCUCCAGAACUACAGAAAUGUAGUUGAUGAGGAGGAGGUUUAUCGAAAUUUCGGCGGAUGCCUCCAAA [G9U C34U U54A],< 1e-05 s⁻¹,–,–,–
AUAAAAGCGGCAGAACUACAGAAAUGUACUUGACGAGGAGGAGGUUUAUGGAAUUUUGGGCGGUUGCCUACAAA [C10G G29C C50G C58G A64U C70A],0.000119 ± 3.1e-05 s⁻¹,0.000165 ± 4e-05 s⁻¹,0.000201 ± 6.9e-05 s⁻¹,–
AUAAAAGCGGCAAAACUACAGAAAUGUAGUAGACGAGGAGGAGGUUUAUAGAAUUUUCUGCGGAUGCCUCCAAA [C10G G13A U31A C50A G59U],< 1e-05 s⁻¹,–,–,–
AUAAAAGCGGCAGUACUACAGAAAUGUAGUUGACGAGGAGGUGGUUUAUCGAAUUUUCGCCGGAUGGCUCCAAA [C10G A14U A42U G60C C67G],< 1e-05 s⁻¹,–,–,–
